{"source": "paper PMC11023060", "biological_target": "T1, CbAgoM (delA2;D463R;Y473A;K477C;T491H;T494S;K520G;A542D;A612D;del738-749)", "T1 chain": "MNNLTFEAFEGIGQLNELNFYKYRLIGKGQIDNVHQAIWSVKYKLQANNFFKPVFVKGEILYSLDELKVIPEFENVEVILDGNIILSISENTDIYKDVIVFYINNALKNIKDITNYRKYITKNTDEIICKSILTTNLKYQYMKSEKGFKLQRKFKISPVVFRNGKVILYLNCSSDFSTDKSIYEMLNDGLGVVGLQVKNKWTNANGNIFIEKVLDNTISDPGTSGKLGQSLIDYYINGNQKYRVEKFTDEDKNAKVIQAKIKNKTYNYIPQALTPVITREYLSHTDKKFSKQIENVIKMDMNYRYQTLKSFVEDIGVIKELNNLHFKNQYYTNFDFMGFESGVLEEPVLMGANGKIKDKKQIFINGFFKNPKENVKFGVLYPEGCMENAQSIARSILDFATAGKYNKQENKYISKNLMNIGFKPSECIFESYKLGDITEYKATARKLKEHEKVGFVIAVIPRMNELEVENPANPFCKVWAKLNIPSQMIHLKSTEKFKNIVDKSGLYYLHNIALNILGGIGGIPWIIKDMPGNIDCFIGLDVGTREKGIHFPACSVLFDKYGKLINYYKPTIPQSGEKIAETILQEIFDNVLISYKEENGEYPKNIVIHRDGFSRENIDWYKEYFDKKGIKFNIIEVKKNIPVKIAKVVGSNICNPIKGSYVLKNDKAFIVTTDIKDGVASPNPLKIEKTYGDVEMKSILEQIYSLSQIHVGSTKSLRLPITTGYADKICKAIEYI", "test": "fluorescence polarization"}
{"binder": "TGAGGTAGTAGGTTGTATAGT (ssDNA, 5'-phosphate)", "note": "[gDNA 21 nt]", "values": [{"measurement": "binding result", "value": "binds"}]}
